Patent US10428327B2, “Compositions and methods for enhancing homologous recombination” (LIFE TECHNOLOGIES CORPORATION, priority 2016, dated 2019)
Oligonucleotides are written 5' to 3', each unit as a sugar letter and its base; * is a phosphorothioate linkage, no mark a phosphodiester; rarer units and linkages stand in square brackets, end groups in braces. Plain capitals give the bases only. d = 2'-deoxy (DNA)

B1: 48-50 NP: symmetric non-PAM strand ssDNA donor, EmGFP, SEQ ID 70 (nucleic acid)
DNA: GTGCTGCTTCATGTGGTCGGGGTAGCGGGCGAAGCACTGCACGCCGTAGGTGAAGGTGGCACGAGGGTGGGCCAGGGCACGGGCAGCTTGCCGGTGG
modifications: DNA, backbone and methylation of C not given here; further chemistry not fully specified
B2: 30-51 NP: asymmetric non-PAM strand ssDNA donor, EmGFP, SEQ ID 68 (nucleic acid)
DNA: GCTGCTTCATGTGGTCGGGGTAGCGGGCGAAGCACTGCACGCCGTAGGTGAAGGTGGTCACGAGGGTGGGCCAGGGCACGG
modifications: chemistry not given here
B3: PS79: phosphorothioate 79-mer PAM ssDNA donor, EmGFP, SEQ ID 38 (nucleic acid)
DNA: CATGTGGTCGGGGTAGCGGGCGAAGCACTGCACGCCGTAGGTGAAGGTGGTCACGAGGGTGGGCCAGGGCACGGGCAGC
modifications: 5' phosphate, modified ends, chemistry not fully specified
B4: 79: unmodified 79-mer PAM ssDNA donor, EmGFP, SEQ ID 39 (nucleic acid)
DNA: B3 DNA
modifications: DNA, backbone not given here
B5: 24-3′: dsDNA donor with 24-base 3′ overhangs, annealed SEQ ID 89 and 90 (nucleic acid)
chain 1: dG*dA*dCdTdAdCdAdAdAdGdAdCdGdAdTdGdAdCdGdAdCdAdAdGdAdAdTdTdCdTdTdAdCdGdGdCdGdTdGdCdAdGdTdGdCdTdTdCdAdGdCdCdGdCdTdAdCdC*dC*dC
chain 2: dA*dA*dGdAdAdTdTdCdTdTdGdTdCdGdTdCdAdTdCdGdTdCdTdTdTdGdTdAdGdTdCdGdGdTdCdAdGdGdGdTdGdGdTdCdAdCdGdAdGdGdGdTdGdGdGdC*dC*dA
modifications: further chemistry not fully specified
B6: 36-3′: dsDNA donor with 36-base 3′ overhangs, annealed SEQ ID 93 and 94 (nucleic acid)
chain 1: dA*dA*dGdAdAdTdTdCdTdTdGdTdCdGdTdCdAdTdCdGdTdCdTdTdTdGdTdAdGdTdCdGdGdTdCdAdGdGdGdTdGdGdTdCdAdCdGdAdGdGdGdTdGdGdGdCdCdAdGdGdGdCdAdCdG*dG*dG
chain 2: dG*dA*dCdTdAdCdAdAdAdGdAdCdGdAdTdGdAdCdGdAdCdAdAdGdAdAdTdTdCdTdTdAdCdGdGdCdGdTdGdCdAdGdTdGdCdTdTdCdAdGdCdCdGdCdTdAdCdCdCdCdGdAdCdC*dA*dC
modifications: further chemistry not fully specified
B7: 50-30 NP: asymmetric non-PAM strand ssDNA donor, EmGFP, SEQ ID 66 (nucleic acid)
DNA: CGGGGTAGCGGGCGAAGCACTGCACGCCGTAGGTGAAGGTGGTCACGAGGGTGGGCCAGGGCACGGGCAGCTTGCCGGTGG
modifications: chemistry not given here
B8: 30-51 P: asymmetric PAM strand ssDNA donor, EmGFP, SEQ ID 67 (nucleic acid)
DNA: CCGTGCCCTGGCCCACCCTCGTGACCACCTTCACCTACGGCGTGCAGTGCTTCGCCCGCTACCCCGACCACATGAAGCAGC
modifications: chemistry not given here
B9: 50-30 P: asymmetric PAM strand ssDNA donor, EmGFP, SEQ ID 65 (nucleic acid)
DNA: CCACCGGCAAGCTGCCCGTGCCCTGGCCCACCCTCGTGACCACCTTCACCTACGGCGTGCAGTGCTTCGCCCGCTACCCCG
modifications: DNA, backbone and methylation of C not given here; further chemistry not fully specified

Legend:
[1] = tested on: disrupted EmGFP stable cell lines; test: Homologous recombination (HDR) assay, gain of EmGFP function by flow cytometry; type: cell-based; settings: for Avg (% GFP+ cells): sequential delivery
Procedure: The JUMP-IN™ system was used to prepare […]™ HEK293 stable cell expressing EmGFP (Thermo Fisher Scientific). The gene sequence of EmGFP is described in Table 5. To create a disrupted EmGFP mutant stable cell line, a gRNA targeting the 5′-[…]-3′ (SEQ ID NO: 125) sequence in EmGFP gene was synthesized. The resulting gRNA (300 ng) was incubated with 1.5 μg of GENEART® […]™ Cas9 nuclease and used to transfect wild type EmGFP cells via electroporation. The single cell clonal isolation was carried out by limiting dilution. The EmGFP loci from non-glowing cells were amplified by PCR using a forward primer 5′-[…]-3′ (SEQ ID NO: 126) and a reverse primer 5′-[…]-3′ (SEQ ID NO: 127) and the resulting PCR products were subjected to TOPO cloning and sequencing. From these clones, a disrupted EmGFP stable cell line containing a deletion of 5′-CACCTT-3′ (SEQ ID NO: 25) was identified (Table 5). In the homologous recombination assay, the gain of EmGFP function was determined by flow cytometric analysis.
(§1) To create homologous recombination (HR) assays, a series of gRNAs flanking the insertion site within the EmGFP gene were designed and synthesized (Table 4). Each individual gRNA was combined with GENEART™ […]™ Cas9 Nuclease to form the Cas9 protein/gRNA ribonucleoprotein complexes (Cas9 RNPs). The Cas9 RNPs were then used to transfect cells via NEON® electroporation. The genomic cleavage efficiency was then evaluated using the GENEART® Genomic Cleavage Detection kit at 48 hours post transfection. The gRNAs with highest editing efficiencies and also in close proximity to the insertion site were selected for the subsequent HR assays. For donor design of a single-stranded oligonucleotide, typically the mutation site was positioned at the center flanked by 30 to 50 nucleotides on each side. For asymmetric donor design, 30 nucleotides were placed on either the left or right arm and then 50 or 67 nucleotides on the right or left arm respectively, in both PAM and non-PAM strands. For design of a dsDNA oligonucleotide with single-stranded overhangs, the insertion element was overlapped in the center flanked by various lengths of ssDNA oligonucleotide on each side. By annealing two single-stranded oligonucleotides at 95° C. for 3 minutes, dsDNA donor molecules with either a 5′ protrusion or a 3′ protrusion were generated. To measure homologous recombination efficiency, the donor DNA was either co-transfected with Cas9 RNPs or delivered sequentially into cells via electroporation. At 48 hours post transfection, the gain of EmGFP function in reporter cell lines was determined by flow cytometric analysis with an Attune® NxT Acoustic Focusing Cytometer (Thermo Fisher Scientific). Alternatively, the genomic loci were PCR-amplified using the corresponding primers and then subjected to GENEART® Genomic Cleavage Detection assay or restriction digestion. The resulting PCR products were also subjected to TOPO cloning. Typically, 96 colonies were randomly picked for sequencing. The sequencing data were analyzed using VECTOR NTI ADVANCE® 11.5 software (Thermo Fisher Scientific).
For each homologous recombination assay, 1.5 μg of Cas9 protein and 360 ng of gRNA were added to Resuspension Buffer R to a final volume of 7 μl, but limiting the total volume of Cas9 protein plus gRNA to less than 1 μl. The gRNA could be diluted in Buffer R if the concentration was too high. Upon mixing, the sample was incubated at room temperature for 5 to 10 minutes to form Cas9 RNPs. Meanwhile, […]™ HEK293 cells expressing either eBFP or disrupted EmGFP were detached from culture flask with TRYPLE™ Express Enzyme and then counted. Aliquots of 1×10^6 cells were washed once with DPBS without Ca^2+ and Mg^2+ and the cell pellets were resuspended in 50 μl of Resuspension Buffer R. A 5 μl aliquot of cell suspension was mixed with 7 μl of Cas9 RNPs. […] The electroporated cells were transferred to 300 μl of […]. […]

[2] = tested on: eBFP locus in HEK293 cells expressing eBFP; test: EcoRI restriction digestion of PCR-amplified eBFP locus (FLAG tag/EcoRI insertion); type: cell-based; settings: FIG. 11B, length of 3′ overhang, 48 hours
Description: FIG. 11. Insertion of a FLAG tag along with an EcoRI site using dsDNA donor with single-stranded overhangs. (A) Various donor DNA molecules containing a 30-base FLAG tag along with an EcoRI site were designed and synthesized, including single-stranded DNA donor (ssDNA), blunt-end dsDNA donor (blunt), dsDNA donor with 5′ overhang (5′), dsDNA donor with 3′ overhang (3′). The length of overhangs varied from 6 nucleotides (6), 15 nucleotides (15) to 30 nucleotides (30). The 3′ and 5′ ends of the oligonucleotides harbored two consecutive phosphorothioate-modified bases (Table 4). The short dsDNA donors with and without overhangs were prepared by annealing two short DNA oligonucleotides. […] At 48 hours post transfection, the eBFP locus was PCR-amplified. The resulting PCR fragments were analyzed by the genomic cleavage and detection assays to determine the percentage of Indel or subjected to restriction digestion with EcoRI to determine the percentage of digestion. (B) Length of 3′ overhang. […] Alternatively, a dsDNA donor with 30-base 3′ overhang but without phosphorothioate modification (30-3′n) was used. The percentage of digestion with EcoRI was determined at 48 hours post transfection. (C) Dose effect. […] The eBFP loci were PCR-amplified. The resulting PCR fragments were analyzed by EcoRI digest. (D) Sequencing verification. The PCR fragments were cloned into E. coli and 192 clones were randomly picked for sequencing. The relative percentage of wild type (wt), NHEJ, and HDR clones derived from either ssDNA donor (ssDNA) or dsDNA with 3′ overhangs (3′ overhang) was plotted. The white rectangles represented the population of clones that contained the insert but with a point mutation. Examples of edited clones were shown in (E) (not representing the actual percentages of NHEJ and HDR). The underlined sequences represented the FLAG tag along with an RI site. FIG. 11 discloses SEQ ID NOs: 15-24, respectively, from top to bottom.
as §1, with “The sequencing data were analyzed using VECTOR NTI ADVANCE® 11.5 software (Thermo Fisher Scientific).” left out

[3] = Equal Mass of donor, +5 gRNA, 6 nt insertion
[4] = Equal Molarity of donor, +5 gRNA, 6 nt insertion

Row | Molecule | Avg (% GFP+ cells) [1, 3] [%] | Avg (% GFP+ cells) [1, 4] [%] | Avg (% GFP+ cells) ([1]; (+3) gRNA, 10 pmol ssDNA donor) [%] | Avg (% GFP+ cells) ([1]; (+5) gRNA, 10 pmol ssDNA donor) [%] | Avg (% GFP+ cells) ([1]; (−3) gRNA, 10 pmol ssDNA donor) [%] | also measured
1 | 40: unmodified 40-mer PAM ssDNA donor, EmGFP, SEQ ID 43 (DNA GGCGAAGCACTGCACGCCGTAGGTGAAGGTGGTCACGAGG; DNA, backbone not given here) [compound 40] | 2.96 | 1.38 | – | – | – | –
2 | PS40: phosphorothioate 40-mer PAM ssDNA donor, EmGFP, SEQ ID 42 (DNA GGCGAAGCACTGCACGCCGTAGGTGAAGGTGGTCACGAGG; 5' phosphate, chemistry not fully specified) | 4.35 | 1.79 | – | – | – | –
3 | B1 | – | – | 9.5 | 26.0 | 18.3 | Avg (% GFP+ cells), normalized HDR efficiency (% EmGFP+ cells/% Indel) ([1]; (+5)gRNA): 38.2%; Avg (% GFP+ cells), normalized HDR efficiency (% EmGFP+ cells/% Indel) ([1]; (−3)gRNA): 26.1%
4 | B2 | – | – | 11.3 | 20.6 | 23.7 | –
5 | B3 | 12.94 | 12.53 | – | – | – | –
6 | B4 | 7.99 | 7.62 | – | – | – | –
7 | B5 | – | – | – | – | – | Avg (% digestion) [2]: 17.3%; Avg (% digestion) ([2]; listed as donor DNA molecules with 24-base 3′-protruded ends): approximately 15%
8 | B6 | – | – | – | – | – | Avg (% digestion) [2]: 41.7%
9 | B7 | – | – | 4.1 | 30.8 | 30.0 | –
10 | B8 | – | – | 4.0 | 30.6 | 34.7 | –
11 | B9 | – | – | 8.7 | 19.7 | 24.6 | –
